Test results: patent publication US20020111304A1 (SCHEPENS EYE RESEARCH INSTITUTE, published 2002)

Tests used:
Experiment in all cases: co-immunoprecipitation with anti-αPDGFR antibody from F cells, Western blot
[1] = target: T1, regulatory subunit of PI3K (p85) (UniProt P26450 2-724)
T1 construct: The catalytic subunit is not described; also called phosphoinositide 3-kinase
From the text: (§1) Portions of the membrane that contained the proteins of the appropriate molecular mass were immunoblotted for PLCγ, the regulatory subunit of PI3K (p85), or SHP-2. Crude rabbit anti-p85 antibody is from Dr. A. Toker (Beth Israel Hospital/Harvard Medical School, Boston, Mass.). The monoclonal antibodies against PLCγ and SHP-2 were purchased from Upstate Biotechnology Inc.

[2] = target: T2, phospholipase C-γ1 (PLCγ) (UniProt Q62077 2-1302, limits assumed)
T2 construct: Endogenous protein that co-precipitates with the receptor from F cell lysates; also called phospholipase C-gamma
T2 sequence (looked up): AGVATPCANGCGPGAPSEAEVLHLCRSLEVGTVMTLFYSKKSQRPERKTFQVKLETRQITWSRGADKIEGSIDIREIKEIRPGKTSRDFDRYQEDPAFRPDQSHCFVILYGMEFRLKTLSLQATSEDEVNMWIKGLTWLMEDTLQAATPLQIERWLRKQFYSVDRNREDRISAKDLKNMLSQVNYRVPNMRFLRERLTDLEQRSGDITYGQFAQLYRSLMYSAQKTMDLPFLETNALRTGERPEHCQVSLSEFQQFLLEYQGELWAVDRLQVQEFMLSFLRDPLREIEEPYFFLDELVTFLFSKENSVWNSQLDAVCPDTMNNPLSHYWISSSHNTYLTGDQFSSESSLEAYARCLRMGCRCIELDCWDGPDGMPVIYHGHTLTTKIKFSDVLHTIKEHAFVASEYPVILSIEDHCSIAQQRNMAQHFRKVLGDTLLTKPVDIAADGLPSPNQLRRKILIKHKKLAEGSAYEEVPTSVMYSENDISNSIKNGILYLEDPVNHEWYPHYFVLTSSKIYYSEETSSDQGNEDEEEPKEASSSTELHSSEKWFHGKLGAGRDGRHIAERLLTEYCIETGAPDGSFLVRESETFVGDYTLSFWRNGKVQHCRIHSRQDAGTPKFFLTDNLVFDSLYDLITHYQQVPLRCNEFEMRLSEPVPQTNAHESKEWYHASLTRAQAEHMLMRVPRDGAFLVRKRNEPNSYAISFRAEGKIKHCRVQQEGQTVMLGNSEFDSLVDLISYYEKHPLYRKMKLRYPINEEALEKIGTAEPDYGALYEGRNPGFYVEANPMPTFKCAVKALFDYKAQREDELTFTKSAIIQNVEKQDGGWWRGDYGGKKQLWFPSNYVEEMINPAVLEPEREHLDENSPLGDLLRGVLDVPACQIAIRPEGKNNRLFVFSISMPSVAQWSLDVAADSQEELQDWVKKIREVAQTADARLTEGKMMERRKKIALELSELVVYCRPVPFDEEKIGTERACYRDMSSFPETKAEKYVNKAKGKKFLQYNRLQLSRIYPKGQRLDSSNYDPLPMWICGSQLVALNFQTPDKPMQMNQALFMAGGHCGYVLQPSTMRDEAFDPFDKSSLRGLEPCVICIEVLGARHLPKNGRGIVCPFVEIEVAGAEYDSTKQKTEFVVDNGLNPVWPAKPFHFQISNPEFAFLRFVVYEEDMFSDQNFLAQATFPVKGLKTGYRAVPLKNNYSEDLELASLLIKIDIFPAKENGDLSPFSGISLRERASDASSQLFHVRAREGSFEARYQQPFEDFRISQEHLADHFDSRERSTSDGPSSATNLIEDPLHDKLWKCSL
From the text: as §1

[3] = target: T3, tyrosine phosphatase SHP-2 (UniProt P35235 2-593, limits assumed)
T3 construct: Endogenous protein that co-precipitates with the receptor from F cell lysates
T3 sequence (looked up): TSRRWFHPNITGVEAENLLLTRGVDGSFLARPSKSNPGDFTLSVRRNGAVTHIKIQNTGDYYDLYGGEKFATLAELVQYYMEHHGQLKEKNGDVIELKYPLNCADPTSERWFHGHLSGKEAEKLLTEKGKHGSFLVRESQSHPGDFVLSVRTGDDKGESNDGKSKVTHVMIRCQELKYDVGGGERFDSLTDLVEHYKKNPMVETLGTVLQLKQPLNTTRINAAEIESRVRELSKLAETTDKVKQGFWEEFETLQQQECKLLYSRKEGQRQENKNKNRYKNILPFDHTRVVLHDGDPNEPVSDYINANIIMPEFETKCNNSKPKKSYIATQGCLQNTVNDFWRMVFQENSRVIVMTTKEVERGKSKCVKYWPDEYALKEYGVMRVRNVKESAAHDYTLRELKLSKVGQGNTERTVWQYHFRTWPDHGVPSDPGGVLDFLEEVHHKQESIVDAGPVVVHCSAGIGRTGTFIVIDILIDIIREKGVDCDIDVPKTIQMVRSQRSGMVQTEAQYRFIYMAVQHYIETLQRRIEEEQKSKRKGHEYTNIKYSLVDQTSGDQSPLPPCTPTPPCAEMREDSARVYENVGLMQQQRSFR
From the text: as §1

T1 sequence (P26450 2-724): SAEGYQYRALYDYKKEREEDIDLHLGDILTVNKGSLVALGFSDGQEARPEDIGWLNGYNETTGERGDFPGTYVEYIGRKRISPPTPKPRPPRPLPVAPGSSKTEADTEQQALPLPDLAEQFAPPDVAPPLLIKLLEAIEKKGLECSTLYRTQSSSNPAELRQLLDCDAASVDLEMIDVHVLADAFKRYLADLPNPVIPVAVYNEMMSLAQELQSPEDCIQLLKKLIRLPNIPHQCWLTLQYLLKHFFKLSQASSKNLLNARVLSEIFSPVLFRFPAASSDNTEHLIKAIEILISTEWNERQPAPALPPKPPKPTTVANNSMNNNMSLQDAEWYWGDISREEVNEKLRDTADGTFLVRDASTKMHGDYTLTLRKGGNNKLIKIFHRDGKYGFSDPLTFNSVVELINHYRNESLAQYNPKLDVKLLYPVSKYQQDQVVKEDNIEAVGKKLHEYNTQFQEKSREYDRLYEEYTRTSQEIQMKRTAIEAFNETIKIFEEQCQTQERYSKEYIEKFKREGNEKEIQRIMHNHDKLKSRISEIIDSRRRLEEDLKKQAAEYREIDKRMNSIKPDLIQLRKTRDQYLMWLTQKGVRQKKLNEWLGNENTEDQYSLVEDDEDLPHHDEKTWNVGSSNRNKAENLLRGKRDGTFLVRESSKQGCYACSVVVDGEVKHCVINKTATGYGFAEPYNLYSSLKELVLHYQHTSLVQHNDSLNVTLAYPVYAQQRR

binding result [1]: no binding
binding result [2]: no binding
binding result [3]: no binding
B1: αPDGFR mutant F7 (Tyr to Phe substitution at 572, 574, 720, 731, 742, 988, and 1018) (receptor)
chain: QLSLPSILPNENEKVVQLNSSFSLRCFGESEVSWQYPMSEEESSDVEIRNEENNSGLFVTVLEVSSASAAHTGLYTCYYNHTQTEENELEGRHIYIYVPDPDVAFVPLGMTDYLVIVEDDDSAIIPCRTTDPETPVTLHNSEGVVPASYDSRQGFNGTFTVGPYICEATVKGKKFQTIPFNVYALKATSELDLEMEALKTVYKSGETIVVTCAVFNNEVVDLQWTYPGEVKGKGITMLEEIKVPSIKLVYTLTVPEATVKDSGDYECAARQATREVKEMKKVTISVHEKGFIEIKPTFSQLEAVNLHEVKHFVVEVRAYPPPRISWLKNNLTLIENLTEITTDVEKIQEIRYRSKLKLIRAKEEDSGHYTIVAQNEDAVKSYTFELLTQVPSSILDLVDDHHGSTGGQTVRCTAEGTPLPDIEWMICKDIKKCNNETSWTILANNVSNIITEIHSRDRSTVEGRVTFAKVEETIAVRCLAKNLLGAENRELKLVAPTLRSELTVAAAVLVLLVIVIISLIVLVVIWKQKPRYEIRWRVIESISPDGHEFIFVDPMQLPYDSRWEFPRDGLVLGRVLGSGAFGKVVEGTAYGLSRSQPVMKVAVKMLKPTARSSEKQALMSELKIMTHLGPHLNIVNLLGACTKSGPIYIITEYCFYGDLVNYLHKNRDSFLSHHPEKPKKELDIFGLNPADESTRSFVILSFENNGDFMDMKQADTTQFVPMLERKEVSKYSDIQRSLYDRPASYKKKSMLDSEVKNLLSDDNSEGLTLLDLLSFTYQVARGMEFLASKNCVHRDLAARNVLLAQGKIVKICDFGLARDIMHDSNYVSKGSTFLPVKWMAPESIFDNLYTTLSDVWSYGILLWEIFSLGGTPYPGMMVDSTFYNKIKSGYRMAKPDHATSEVYEIMVKCWNSEPEKRPSFYHLSEIVENLLPGQYKKSYEKIHLDFLKSDHPAVARMRVDSDNAFIGVTYKNEEDKLKDWEGGLDEQRLSADSGFIIPLPDIDPVPEEEDLGKRNRHSSQTSEESAIETGSSSSTFIKREDETIEDIDMMDDIGIDSSDLVEDSFL
notes: Expressed in F cells and immunoprecipitated from lysates
